Measurements as given in the supplement of paper PMC9732359.
± gives the uncertainty stated by the source.

Experiment: protein stability index of a GFP-peptide fusion (yeast GPS) (PSI 1-4); higher = more stable; sorted into four equal gates, so the index is relative within each strain
Procedure, shortened: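 Each library plasmid carries Cherry plus GFP with a tiled 17-residue yeast protein peptide fused downstream, and the pooled library was carried in yeast. Mid-log cultures in leucine-free medium were sorted into four equal gates by GFP/Cherry ratio. Reads from Illumina sequencing of PCR-amplified plasmids from each gate were assigned to strains by barcodes. Per peptide, the protein stability index was computed as the summed products of gate read frequency and gate number.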

Sequence	protein stability index (doa10∆)	protein stability index (pdr5∆)	protein stability index (san1∆)	protein stability index (ubr1∆)
TLHLVLRLRGGGKKRKK [RPS31]	2.34 ± 0.26	2.32 ± 0.084	2.83 ± 0.3	2.86 ± 0.14
LTEAVEDGPRPFKVFLD [RPL5]	3.03 ± 0.071	3.11 ± 0.061	3.02 ± 0.052	3.23 ± 0.036
SRGAVSGQKAGLIAARR [RPL2A]	3.4 ± 0.093	3.32 ± 0.083	3.27 ± 0.065	3.25 ± 0.097
AIPNPEDVVAISSRTFG [RPS0A]	3.22 ± 0.1	2.94 ± 0.05	2.91 ± 0.077	2.94 ± 0.043
QINNVHLIPNEIKGASE [RPN4]	2.84 ± 0.064	2.75 ± 0.059	2.42 ± 0.06	2.76 ± 0.052
GSNQKPKYEPPVQSKFG [RPT2]	2.94 ± 0.13	3 ± 0.15	2.34 ± 0.22	3.09 ± 0.099
LYYRPHINKKSQLDLFL [GRR1]	1.78 ± 0.071	2.17 ± 0.12	1.28 ± 0.1	1.85 ± 0.093
AYPGKLICPQYGTENKD [CSL4]	1.89 ± 0.073	1.93 ± 0.068	1.72 ± 0.15	1.9 ± 0.078
KAKTTKKVVLRLECVKC [RPL42A]	1.64 ± 0.22	1.52 ± 0.17		1.81 ± 0.065
LREFRITHNTNITDNLF [GRR1]	1.32 ± 0.15	1.28 ± 0.15		2.07 ± 0.11
NNRQLPYLVANVVEVMD [RPT5]	2.4 ± 0.11	2.78 ± 0.07	2.58 ± 0.14	2.71 ± 0.074
TVQSERAFQKQPHIFNN [RPS11A]	2.69 ± 0.051	2.58 ± 0.043	2.53 ± 0.045	2.79 ± 0.034
TNVPKAKKRKTLILIQN [SIR3]	1.67 ± 0.18	1.63 ± 0.12	1.33 ± 0.22	1.4 ± 0.1
VRAEELNISGEFFRNKL [RPL16A]	3.67 ± 0.21	3.17 ± 0.23	3.07 ± 0.18	3.36 ± 0.2
VEKGVNPTKSKEILDNI [ECM29]	3.26 ± 0.14	3.5 ± 0.12	3.37 ± 0.25	3.62 ± 0.14
RSINNLIQEHDSRKNRE [BRN1]	3.24 ± 0.065	3.37 ± 0.052	3.15 ± 0.043	3.38 ± 0.053
ILDKIFYGVLDQGNGWL [RPN6]	3.31 ± 0.096	2.65 ± 0.069	2.45 ± 0.059	3.11 ± 0.061
NNNNNNNDDNGNNNNNN [MED2]	3.277 ± 0.029	3.284 ± 0.023	3.327 ± 0.017	3.286 ± 0.023
FLKKLRNEQVTIELKNG [SMD1]	2.49 ± 0.051	2.24 ± 0.044	2.42 ± 0.056	2.67 ± 0.039
KSFYSTATGAASKSGKL [CYT1]	2.74 ± 0.091	2.62 ± 0.1	2.87 ± 0.079	2.75 ± 0.059
NASANSTSFSFNAPATG [YOR098C/NUP1]	2.99 ± 0.049	2.94 ± 0.051	3.05 ± 0.046	2.96 ± 0.033
DEIKAQRKEIKDRISSC [SMC4]	3 ± 0.062	3.03 ± 0.054	3.13 ± 0.061	3.07 ± 0.053
ALMRCSFEETVEILFEA [RPO21]	3.12 ± 0.082	2.6 ± 0.079	3.06 ± 0.062	2.85 ± 0.069
IWKESLIELSGGQRSLI [SMC2]	1.75 ± 0.14	2.12 ± 0.091	1.98 ± 0.16	1.56 ± 0.12
LVEPSKVGQFDQVLNLC [FAS1]	2.35 ± 0.13	2.41 ± 0.09	2.78 ± 0.11	2.73 ± 0.16
QIEKKEIKKMIITNINA [YCG1]	2.64 ± 0.11	2.75 ± 0.11	2.7 ± 0.13	2.47 ± 0.15

Sequence	protein stability index (doa10∆)	protein stability index (pdr5∆)	protein stability index (san1∆)	protein stability index (ubr1∆)
PDYYVSILSFVDKELLE [RPT2]	2.6 ± 0.054	2.55 ± 0.048	2.39 ± 0.05	2.59 ± 0.046
VVDFLKRNGSTLEQKVN [FAS1]	2.83 ± 0.057	3.03 ± 0.049	2.87 ± 0.048	3.07 ± 0.04
EQTCVKLLDSGCENPAD [SRP72]	3.26 ± 0.066	3.4 ± 0.085	2.91 ± 0.092	3.46 ± 0.073
NAQDIDHFLSMCQNPMQ [FAS1]	3.51 ± 0.23	2.84 ± 0.17		
MDFGVDPSMDPELAMAL [RPN10]	2.88 ± 0.077	3.15 ± 0.079	2.99 ± 0.074	2.84 ± 0.069
AISTGNWSLKRFKMERA [RET1]	1.94 ± 0.097	1.93 ± 0.11	2.44 ± 0.11	1.68 ± 0.077
IQRETLLPTNNGQPLNQ [GRR1]	2.53 ± 0.072	2.91 ± 0.071	2.64 ± 0.06	2.65 ± 0.057
SRTAADILLRLCVLWDD [YCG1]	2.23 ± 0.24			3 ± 0.24
NVGLCITIYDLLTVEEG [RPC25]	1.45 ± 0.091	1.26 ± 0.067	1.45 ± 0.16	1.57 ± 0.076
LDKDSSQSSAAAGASVD [RPN6]	3.47 ± 0.11	3.42 ± 0.078	3.02 ± 0.075	3.2 ± 0.086
VTRTHGNSGVVRATFRN [RPL33A]	2.6 ± 0.075	2.82 ± 0.088	2.56 ± 0.092	2.86 ± 0.073
YMVSRAIRDGVIEAKIN [RPN3]		3.28 ± 0.17	2.95 ± 0.12	2.8 ± 0.15
TFDGKPTATPSPFRPLE [YMR153W/NUP53]	3.02 ± 0.086	2.15 ± 0.087	2.38 ± 0.12	2.58 ± 0.071
TEPDKPAFSFNSSVGNK [YJL041W/NSP1]	3.14 ± 0.053	3.3 ± 0.04	3.09 ± 0.033	3.242 ± 0.029
KTVAVDSVFEQNEMIDA [RPL3]	2.57 ± 0.095	2.75 ± 0.12	2.31 ± 0.11	2.51 ± 0.042
PKYAKQKDKSDTYKRFK [ISW2]	3.12 ± 0.084	3.1 ± 0.1	3.13 ± 0.11	3.23 ± 0.079
EMDEKSYEKNEDHVEDH [LIN1]	3.3 ± 0.11	3.35 ± 0.089	3.49 ± 0.086	3.14 ± 0.052
NNTTPSSTGNANTSNNL [YJL041W/NSP1]	3.34 ± 0.093	3.29 ± 0.08	3.46 ± 0.095	3.37 ± 0.07
PISKHSKQAIYTRAAAS [RPS25B]	2.64 ± 0.067	2.63 ± 0.054	2.43 ± 0.061	2.83 ± 0.051
TFLESINGINWRFHTPQ [SIN4]	2.4 ± 0.054	1.86 ± 0.048	1.93 ± 0.12	2.02 ± 0.043
VDFQNDLKDILEKVVPL [BRR2]	3.17 ± 0.18	2.88 ± 0.13	2.9 ± 0.15	2.69 ± 0.066
IYDFITLFSSIEPQVIN [ECM29]	1.61 ± 0.07	2 ± 0.061	1.72 ± 0.18	2.08 ± 0.039
APLKALVQEQVREFQRR [BRR2]	1.26 ± 0.1	1.24 ± 0.092	1.3 ± 0.13	1.26 ± 0.13
SKEGQYKAKIKELENNL [YIL149C/MLP2]	2.75 ± 0.12	1.49 ± 0.053	2.18 ± 0.13	3.03 ± 0.069
LVDNLNAEVVAGNIKCR [BRR2]	1.79 ± 0.087	1.67 ± 0.07	1.72 ± 0.14	1.45 ± 0.075
KTLHSQMMSKGIGALFT [RPC34]				3.18 ± 0.21
